{"source": "patent US6004757", "key": {"[1]": {"biological_target": "chicken pp60^v-src (chicken)"}}, "note": "Where no end group is shown, it is not given here.", "data": [{"binder": "ARRPMSPKKKA", "note": "[peptide Ala-Arg-Arg-Pro-Met-Ser-Pro-Lys-Lys-Lys-Ala]", "values": [{"measurement": "Km (µM) of phosphorylation of the peptide by the kinase", "setting": "GST-cyclin B/p33^cdc2", "result": 2.4, "unit": "µM"}, {"measurement": "Km (µM) of phosphorylation of the peptide by the kinase", "setting": "GST-cyclinA/p33^CDK2", "result": 15, "unit": "µM"}]}, {"binder": "IEKIGEGTYGVVYKGRHKTT (not fully specified)", "note": "[synthetic peptide based upon the site of tyrosine phosphorylation on p33^cdc2 (Y15)]", "values": [{"measurement": "Km (µM) of phosphorylation of the peptide by the kinase", "setting": "[1]", "result": 139, "unit": "µM"}]}, {"binder": "EAIYAAPFAKKK", "note": "[synthetic abl optimal peptide …]", "values": [{"measurement": "Km of phosphorylation of the peptide by the kinase", "setting": "GST-c-abl", "result": 4, "unit": "µM"}]}]}
